Reference: patent publication US9598497B2, “RSPO3 binding agents and uses thereof” (OncoMed Pharmaceuticals, Inc., priority 2012, dated 2017)
Blank lines part the entries; values can stand above or below the molecule they belong to.

Assays:
[1] = system: gene sets characteristic of normal stem cells or cancer stem cells; experiment: Microarray gene set enrichment analysis of treated OMP-LU102 tumors; type: in vivo, NOD-SCID mice; details: RNA from OMP-LU102 tumors after treatment, FIG. 11B
Experimental: RNA was prepared from tumors from each of the four experimental groups following the treatment. Gene expression was characterized by microarray analysis.

human LGR5 = biological target: T1, human LGR5 (Homo sapiens, UniProt O75473); experiment: FACS binding of RSPO-Fc fusion proteins to LGR5 expressed on HEK-293 cells; details: 10 μg/ml Fc fusion protein, FIG. 2
T1 construct: ligating amino acids 22-564 of human LGR5 to an N-terminal FLAG tag; expressed in transfected cells; host or cells: HEK-293
T1 sequence (O75473 22-564): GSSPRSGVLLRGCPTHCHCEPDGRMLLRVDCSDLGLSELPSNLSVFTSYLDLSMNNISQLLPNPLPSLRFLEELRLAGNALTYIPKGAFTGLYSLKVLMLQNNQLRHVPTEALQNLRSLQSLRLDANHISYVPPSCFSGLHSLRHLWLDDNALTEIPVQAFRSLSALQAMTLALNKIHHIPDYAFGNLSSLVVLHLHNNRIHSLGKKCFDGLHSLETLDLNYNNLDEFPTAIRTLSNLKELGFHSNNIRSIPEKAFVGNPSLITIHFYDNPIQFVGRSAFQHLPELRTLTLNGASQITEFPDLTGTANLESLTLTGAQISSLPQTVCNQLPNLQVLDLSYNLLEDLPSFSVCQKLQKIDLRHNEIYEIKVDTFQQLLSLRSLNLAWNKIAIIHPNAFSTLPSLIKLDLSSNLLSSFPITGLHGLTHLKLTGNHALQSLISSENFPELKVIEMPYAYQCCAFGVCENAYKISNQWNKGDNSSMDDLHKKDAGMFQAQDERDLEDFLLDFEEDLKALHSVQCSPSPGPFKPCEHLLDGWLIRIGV
Description: A cell surface LGR5 protein was generated by ligating amino acids 22-564 of human LGR5 to an N-terminal FLAG tag and to the transmembrane domain of CD4 and a C-terminal GFP protein tag using standard recombinant DNA techniques (FLAG-LGR5-CD4TM-GFP). RSPO-Fc constructs were generated using standard recombinant DNA techniques. Specifically, full-length human RSPO1, RSPO2, RSPO3 and RSPO4 were ligated in-frame to a human Fc region and the recombinant RSPO-Fc proteins were expressed in insect cells using baculovirus. The fusion proteins were purified from the insect medium using protein A chromatography.
HEK-293 cells were transiently transfected with the FLAG-LGR5-CD4TM-GFP construct. After 48 hours, transfected cells were suspended in ice cold PBS containing 2% FBS and heparin and incubated on ice in the presence of 10 μg/ml RSPO1-Fc, RSPO2-Fc, RSPO3-Fc, RSPO4-Fc, or FZD8-Fc fusion proteins for 15 minutes. A second incubation with 100 μl PE-conjugated anti-human Fc secondary antibody was performed to detect cells bound by the Fc fusion proteins. Cells were incubated with an anti-FLAG antibody (Sigma-Aldrich, St. Louis, Mo.) as a positive control and with an anti-PE antibody as a negative control. The cells were analyzed on a FACSCalibur instrument (BD Biosciences, San Jose, Calif.) and the data was processed using FlowJo software.

[2] = system: RSPO3-induced β-catenin signaling; experiment: TOPflash 6xTCF-luciferase reporter assay in HEK-293 cells with WNT3a and RSPO3; type: cell-based, human
Experimental: HEK-293 cells were transfected with a 6×TCF-luciferase reporter vector (TOPflash, Millipore, Billerica, Mass.). After 24-48 hrs, the transfected HEK-293 cells were incubated with a combination of WNT3a (5 ng/ml) and human RSPO3 (10 ng/ml, R&D BioSystems, Minneapolis, Minn.) in the presence of anti-RSPO3 antibodies 131R002 and 131R003. Antibodies 131R002 and 131R003 were added to the cells in 4-fold serial dilutions from 20 μg/ml to 0.02 μg/ml. As controls, cells were incubated with a combination of WNT3a and RSPO3, WNT3a only, RSPO3 only, or with no addition. The cells were incubated for 16 hours and luciferase activity was measured using Steady-Glo® Luciferase Assay System according to the manufacturer's instructions (Promega, Madison, Wis.).
HEK-293 cells were transfected with a 6×TCF-luciferase reporter vector (TOPflash, Millipore, Billerica, Mass.). After 24-48 hrs, the transfected HEK-293 cells were incubated with a combination of WNT3a and human RSPO3 in the presence of anti-RSPO3 antibodies 131R003, 131R003 CDR1 variant and 131R003 CDR3 variant. 131R003, 131R003 CDR1 variant, and 131R003 CDR3 variant were added to the cells in 5-fold serial dilutions from 20 μg/ml to 0.006 μg/ml. As controls, cells were incubated with a combination of WNT3a and RSPO3, WNT3a only, RSPO3 only, a control antibody, or with no addition. The cells were incubated for 16 hours and luciferase activity was measured using Steady-Glo® Luciferase Assay System according to the manufacturer's instructions (Promega, Madison, Wis.).
HEK-293 cells were transfected with a 6×TCF-luciferase reporter vector (TOPflash, Millipore, Billerica, Mass.). After 24-48 hrs, the transfected HEK-293 cells were incubated with a combination of WNT3a conditioned medium (5 ng/ml) and human RSPO3 (10 ng/ml, R&D BioSystems) in the presence of anti-RSPO3 antibodies 131R002, 131R006B, or 131R007. Antibodies 131R002, 131R006 or 131R007 were added to the cells in 5-fold serial dilutions from 20 μg/ml to 0.0064 μg/ml. As controls, cells were incubated with WNT3a conditioned medium alone, a combination of WNT3a conditioned medium and human RSPO3, or with no addition to cells. The cells were incubated for 16 hours and luciferase activity was measured using Steady-Glo® Luciferase Assay System according to the manufacturer's instructions (Promega, Madison, Wis.).
HEK-293 cells were transfected with a 6×TCF-luciferase reporter vector (TOPflash, Millipore, Billerica, Mass.). […] The cells were incubated for 16 hours and luciferase activity was measured using Steady-Glo® Luciferase Assay System according to the manufacturer's instructions (Promega, Madison, Wis.).

Molecule: N.N.O=C([O-])C1(C(=O)[O-])CCC1.[Pt+2] [carboplatin, reference compound]
expression of gene sets characteristic of normal stem cells or cancer stem cells [1]: did not have this effect on gene expression

B2: RSPO1: full-length human RSPO1 ligated in-frame to a human Fc region (protein)
chain: SRGIKGKRQRRISAEGSQACAKGCELCSEVNGCLKCSPKLFILLERNDIRQVGVCLPSCPPGYFDARNPDMNKCIKCKIEHCEACFSHNFCTKCKEGLYLHKGRCYPACPEGSSAANGTMECSSPAQCEMSEWSPWGPCSKKQQLCGFRRGSEERTRRVLHAPVGDHAACSDTKETRRCTVRRVPCPEGQKRRKGGQGRRENANRNLARKESKEAGAGSRRRKGQQQQQQQGTVGPLTSAGPA
modifications: left off: a dimerising Fc or GST
notes: full-length human RSPO1 ligated in-frame to a human Fc region
binding to LGR5 expressed on the surface of HEK-293 cells (human LGR5): bound to LGR5

B4: 131R003: anti-RSPO3 antibody from a mammalian cell antibody library; heavy chain variable region SEQ ID NO:16, light chain variable region SEQ ID NO:17 (antibody, V domains shown)
VH: QVQLKQSGPELVKPGASVKISCKASGYTFTDYSIHWVKQNHGKSLDWIGYIYPSNGDSGYNQKFKNRATLTVDTSYSTAYLEVRRLTFEDSAVYYCATYFANYFDYWGQGTTLTVSSAST
VL: DIVLTQSPASLAVSLGQRATISCKASQSVDYDGDSYMNWYQQKPGQPPKLLIYAASNLESGIPARFSGSGSGTDFTLNIHPVEEEDAATYYCQQSNEDPLTFGAGTKLELKR
modifications: 131R003 Heavy chain variable region; 131R002/131R003 Light chain variable region
RSPO3-induced β-catenin signaling ([2]; WNT3a 5 ng/ml + RSPO3 10 ng/ml, antibody 20 to 0.02 μg/ml, FIG. 3): reduced RSPO3-induced β-catenin signaling in a dose-dependent manner

B5: h131R010: humanized 131R003 variant, IgG1; heavy chain variable region SEQ ID NO:44, light chain variable region SEQ ID NO:86; ATCC PTA-120420 and PTA-120421 (antibody, V domains shown)
VH: QVQLVQSGAEVKKPGASVKVSCKASGYTFTDYSIHWVRQAPGQGLEWIGYIYPSNGDSGYNQKFKNRVTMTRDTSTSTAYMELSRLRSEDTAVYYCATYFANNFDYWGQGTTLTVSS
VL: DIQMTQSPSSLSASVGDRVTITCKASQSVDYDGDSYMNWYQQKPGKAPKLLIYAASNLESGVPSRFSGSGSGTDFTLTISPVQAEDFATYYCQQSNEDPLTFGAGTKLELKR
modifications: Humanized 131R005/131R007/131R008/ 131R010/131R011 Heavy chain variable region; Humanized 131R010/131R011 Light chain variable region
notes: humanized 131R003 variant, IgG1; ATCC PTA-120420 and PTA-120421
WNT3a/RSPO3-induced β-catenin signaling ([2]; WNT3a conditioned medium 5 ng/ml + human RSPO3 2 ng/ml, antibody 20 to 0.0064 μg/ml, FIG. 13): reduced WNT3a/RSPO3-induced β-catenin signaling in a dose-dependent manner and to a similar extent as h131R007

More lines, now with the values ahead:

binding to LGR5 expressed on the surface of HEK-293 cells (human LGR5): bound to LGR5
B1: RSPO2: full-length human RSPO2 ligated in-frame to a human Fc region (protein)
chain: QGNRWRRSKRASYVSNPICKGCLSCSKDNGCSRCQQKLFFFLRREGMRQYGECLHSCPSGYYGHRAPDMNRCARCRIENCDSCFSKDFCTKCKVGFYLHRGRCFDECPDGFAPLEETMECVEGCEVGHWSEWGTCSRNNRTCGFKWGLETRTRQIVKKPVKDTIPCPTIAESRRCKMTMRHCPGGKRTPKAKEKRNKKKKRKLIERAQEQHSVFLATDRANQ
modifications: left off: a dimerising Fc or GST
notes: full-length human RSPO2 ligated in-frame to a human Fc region

binding to LGR5 expressed on the surface of HEK-293 cells (human LGR5): bound to LGR5
B3: RSPO3: full-length human RSPO3 ligated in-frame to a human Fc region (protein)
chain: QNASRGRRQRRMHPNVSQGCQGGCATCSDYNGCLSCKPRLFFALERIGMKQIGVCLSSCPSGYYGTRYPDINKCTKCKADCDTCFNKNFCTKCKSGFYLHLGKCLDNCPEGLEANNHTMECVSIVHCEVSEWNPWSPCTKKGKTCGFKRGTETRVREIIQHPSAKGNLCPPTNETRKCTVQRKKCQKGERGKKGRERKRKKPNKGESKEAIPDSKSLESSKEIPEQRENKQQQKKRKVQDKQKSVSVSTVH
